In one data set the test system is mouse L1210 leukemia. In words: antitumor activity against mouse L1210 leukemia, life prolongation rate. It is filed as in vivo. To be noted: once a day for five days starting 24 hours after tumor cell injection, control survival day = 100%. Here is the method:
These HB-6 substances were tested for their antitumor activity in terms of mouse L1210 leukemia. L1210 leukemia cells (1×10^5) were abdominally injected to each mouse, and the test sample was administered once a day for consecutive five days, with the first administration being started 24 hours after injection of the tumor cells. The result is summarized in Table 1, in which the antitumor activity of each drug is expressed as life prolongation rate, taking the survival day for the control group as 100%.
These HBW-6 substances were tested for their antitumor activity in terms of mouse L1210 leukemia. L1210 leukemia cells (1×10^5) were abdominally injected to each mouse, and the test sample was administered once a day for consecutive five days, with the first administration being started 24 hours after injection of the tumor cells. The result is summarized in Table 2, in which the antitumor activity of each drug is expressed as life prolongation rate, taking the survival day for the control group as 100%.

For data set [1], the system named is Pseudomonas aeruginosa ATCC10145. In words: antibacterial activity, MIC, Pseudomonas aeruginosa ATCC10145. It is filed as cell-based.
Data set [2] relates to Micrococcus luteus ATCC9341. In words: antibacterial activity, MIC, Micrococcus luteus ATCC9341. It is filed as cell-based.
Data set [3] concerns Bacillus subtilis ATCC6633. Kind of data set: antibacterial activity, MIC, Bacillus subtilis ATCC6633. In kind it is cell-based.
The nature of the next data set: Isoelectric point. In kind it is physicochemical.
The next data set in a line: Solubility. To be noted: water and organic solvents. In kind it is physicochemical.

These results are taken from patent publication US4642335A, “Anthracycline compounds bound to hydrophilic polypeptides” (Ajinomoto Co., Inc., priority 1984, dated 1987).

In brackets after ≈: the same amount, converted by molar mass. Like-named read-outs stand apart in the source and are kept apart here. Where only a bound is given, the exact number is not on record here.

The term MIC denotes the least concentration at which growth counts as inhibited. With `COc1cccc2c1C(=O)c1c(O)c3c(c(O)c1C2=O)C[C@@](O)(C(C)=O)C[C@@H]3O[C@H]1C[C@H](N)[C@H](O)[C@H](C)O1` [Daunomycin, daunomycin, reference compound], the “Life Prolongation Rate” value in the data set with mouse L1210 leukemia (dose 2 mg/Kg) is recorded as 145%. The MIC in data set [1] (read-out: MIC) was more than 10 µg/mL; in data set [2] (read-out: MIC), 1.2 µg/mL (≈ 2.27 µM); in data set [3] (read-out: MIC), 5.8 µg/mL (≈ 11 µM).

B1: NCS-apoprotein: methanol-insoluble fraction (protein moiety) of neocarzinostatin (protein, UniProt P0A3R9 35-147, looked up)
Neocarzinostatin: AAPTATVTPSSGLSDGTVVKVAGAGLQAGTAYDVGQCAWVDTGVLACNPADFSSVTADANGSASTSLTVRRSFEGFLFDGTRWGTVDCTTAACQVGLSDAAGNGPEGVAISFN
The molecule B1 yielded an Isoelectric point in “Isoelectric point” of 3.2 pH. For the same molecule, the Solubility entry in the data set “Solubility” is “Soluble in water; insoluble in methanol, ethanol, acetone, butanol and propanol”. For the same molecule, the “Life Prolongation Rate” value in the data set on mouse L1210 leukemia (dose 2 mg/Kg) worked out at 101%. Besides, the MIC in data set [1], in data set [2] and in data set [3] was more than 100 µg/mL in each case.

B2: HBW-21(B): NCS-apoprotein and aclacinomycin A bound together, molar ratio 1:5 (conjugate, UniProt P0A3R9 35-147, looked up)
Neocarzinostatin: B1 Neocarzinostatin
modifications: complex with aclacinomycin A, 1:5
Regarding B2, the “Life Prolongation Rate” value with mouse L1210 leukemia (dose 1 mg/Kg) came out at 162%.

B3: HBW-10(A): NCS-apoprotein and daunomycin bound through hydrogen bond and/or hydrophobic bond, molar ratio 1:1 (conjugate, UniProt P0A3R9 35-147, looked up)
Neocarzinostatin: B1 Neocarzinostatin
modifications: noncovalent complex with daunomycin, 1:1
Take B3: the “Life Prolongation Rate” value in the data set with mouse L1210 leukemia (dose 1 mg/Kg) is listed as 260%. The MIC in data set [1] is more than 10 µg/mL; in data set [2] it was 0.30 µg/mL; in data set [3], 2.3 µg/mL.

B4: HBW-21(A): NCS-apoprotein and aclacinomycin A bound together, molar ratio 1:1 (conjugate, UniProt P0A3R9 35-147, looked up)
Neocarzinostatin: B1 Neocarzinostatin
modifications: aclacinomycin A conjugate, 1:1
Regarding B4, the “Life Prolongation Rate” value in the data set with mouse L1210 leukemia (dose 1 mg/Kg) came to 135%.
